Data from PMC11331121.

Legend:
Assay in all cases: SPR
H3K9ac peptide = target: H3K9ac peptide
H4K5ac peptide = target: H4K5ac peptide
H4K8ac peptide = target: H4K8ac peptide
H3K14ac peptide = target: H3K14ac peptide

B1: triple Tudor domains (3TD) of Drosophila Eggless/SetDB1, wild type (domain or fragment)
chain: SDYVHEVPPPGEIVRPPIQLGETYYAVKNKAIASWVSIKVIEFTESTAINGNTMKSYKIRYLNTPYQMIKTVTAKHIAYFEPPPVRLTIGTRVIAYFDGTTLSRGKDKGVVQSAFYPGIIAEPLKQANRYRYLIFYDDGYTQYVPHRDVRLVCQASEKVWEDVHAASRDFIQKYVEKYSVDRPMVQCTRGQSMTTESNGTWLYARVIDIDCSLVLMQFEGDKNHTEWIYRGSLRLGPVFRETQNNMNSSSAQQLRVP
With B1 as the binder, how does the Kd (H3K9ac peptide) read?
Its Kd is 823 µM.

What about the Kd (H4K5ac peptide) of the same binder?
Its Kd is 925 µM.

What about the Kd (H4K8ac peptide) of the same binder?
The Kd was 654 µM.

And the Kd (H3K14ac peptide)?
Its Kd is 339 µM.
